The results in this text go back to the RNAGym collection of RNA variant scans (doi:10.7554/elife.90254).

B1: LINE1-mini (parent)
chain: GGCAGAGCUCAACACAGCGUGGCAAAGUGGCUGUGGCUAGACUGCC

In the series the parent is B1. In words: self-cleavage, relative activity (ratio to wild type); higher = more cleavage; in vitro, sequencing; the parent is a self-cleaving ribozyme.
As to U32A G40A, the self-cleavage came out at 0.06.

For U32A G40C, the self-cleavage was 0.08.

Regarding U32A G40U, the self-cleavage was 0.16.

For the variant G33U G44A, the self-cleavage turned out to be 0.07.

In the case of G33U G44C, the self-cleavage is 0.06.

For G33U G44U, the self-cleavage is 0.07.

As to U34C C46U, the self-cleavage came out at 0.12.

On to U34C C46G, for which the self-cleavage came to 0.1.

Take U34C C46A: the self-cleavage turned out to be 0.16.

As for U34A, the self-cleavage turned out to be 0.1.

Turning to U34C, the self-cleavage came to 0.13.

As to G33A C45A, the self-cleavage was found to be 0.1.

As for G33A C45G, the self-cleavage amounted to 0.07.

Take G33A C45U: the self-cleavage amounted to 0.1.

With U34C A41U, the self-cleavage was 0.06.

Turning to U34C A41G, the self-cleavage came out at 0.07.

As for U34C A41C, the self-cleavage came to 0.05.

Turning to U32C G36U, the self-cleavage is 0.06.

U32C G36C: the self-cleavage turned out to be 0.04.

On to U32C G36A, for which the self-cleavage was determined as 0.08.

Turning to G33A G36A, the self-cleavage was 0.12.

Take G33A G36U: the self-cleavage came out at 0.09.

As to G33A G36C, the self-cleavage amounted to 0.05.

For U32G C45U, the self-cleavage amounted to 0.12.

In the case of U32G C45A, the self-cleavage is 0.1.

Regarding U32G C45G, the self-cleavage amounted to 0.11.

For U34C C42U, the self-cleavage came to 0.12.

With U34C C42A, the self-cleavage stood at 0.09.

U34C C42G: the self-cleavage is 0.05.

Take C31U U38C: the self-cleavage was determined as 0.14.

For C31U U38A, the self-cleavage came to 0.2.

With C31U U38G, the self-cleavage worked out at 0.05.

Consider C31U G44U, for which the self-cleavage was 0.05.

Take C31U G44C: the self-cleavage was found to be 0.07.

For C31U G44A, the self-cleavage turned out to be 0.04.

Regarding U32A G36A, the self-cleavage stood at 0.06.

As for U32A G36C, the self-cleavage turned out to be 0.11.

In the case of U32A G36U, the self-cleavage was 0.05.

Turning to U32G U34G, the self-cleavage was determined as 0.03.

U32G U34C: the self-cleavage was found to be 0.06.

For U32G U34A, the self-cleavage turned out to be 0.04.

Consider U32G C46A, for which the self-cleavage was 0.2.

In the case of U32G C46U, the self-cleavage amounted to 0.17.

Consider U32G C46G, for which the self-cleavage is 0.1.

As to G33U A39C, the self-cleavage worked out at 0.07.

On to G33U A39U, for which the self-cleavage was 0.15.

On to G33U A39G, for which the self-cleavage is 0.12.

Turning to U34C C37U, the self-cleavage turned out to be 0.05.

In the case of U34C C37A, the self-cleavage came out at 0.09.

For the variant U34C C37G, the self-cleavage stood at 0.04.

Regarding U34A A41C, the self-cleavage is 0.03.

On to U34A A41U, for which the self-cleavage is 0.05.

U34A A41G: the self-cleavage was 0.05.

With U34A G35C, the self-cleavage was 0.13.

For the variant U34A G35A, the self-cleavage came out at 0.07.

As for U34A G35U, the self-cleavage turned out to be 0.06.

In the case of U32C G33U, the self-cleavage amounted to 0.13.

Turning to U32C G33C, the self-cleavage was determined as 0.04.

Regarding U32C G33A, the self-cleavage came to 0.05.

Turning to G33A C37G, the self-cleavage was found to be 0.04.

With G33A C37U, the self-cleavage is 0.04.

Regarding G33A C37A, the self-cleavage came to 0.12.

As for G33C G44U, the self-cleavage came out at 0.04.

Take G33C G44C: the self-cleavage worked out at 0.04.

Regarding G33C G44A, the self-cleavage was found to be 0.03.

On to G33C U43G, for which the self-cleavage was 0.01.

Turning to G33C U43C, the self-cleavage came to 0.03.

Consider G33C U43A, for which the self-cleavage worked out at 0.12.

As for U34A G40U, the self-cleavage amounted to 0.06.

For the variant U34A G40C, the self-cleavage was 0.04.

As for U34A G40A, the self-cleavage came out at 0.09.

On to U32A G35C, for which the self-cleavage was 0.08.

With U32A G35U, the self-cleavage is 0.05.

U32A G35A: the self-cleavage was found to be 0.04.

For U32A U43G, the self-cleavage was 0.11.

With U32A U43A, the self-cleavage is 0.08.

In the case of U32A U43C, the self-cleavage came out at 0.04.

For G33A G35A, the self-cleavage stood at 0.07.

As to G33A G35U, the self-cleavage was determined as 0.1.

As for G33A G35C, the self-cleavage came to 0.05.

Regarding U34A C45U, the self-cleavage stood at 0.11.

Turning to U34A C45A, the self-cleavage came out at 0.08.

For U34A C45G, the self-cleavage was determined as 0.15.

G33C G36A: the self-cleavage is 0.03.

Turning to G33C G36C, the self-cleavage amounted to 0.04.

As for G33C G36U, the self-cleavage was determined as 0.06.

As to U32A A41G, the self-cleavage was found to be 0.04.

As for U32A A41U, the self-cleavage stood at 0.13.

For the variant U32A A41C, the self-cleavage amounted to 0.07.

For the variant U34A C42A, the self-cleavage stood at 0.05.

As for U34A C42G, the self-cleavage stood at 0.04.

As to U34A C42U, the self-cleavage turned out to be 0.05.

For U32A C45U, the self-cleavage worked out at 0.07.

Take U32A C45A: the self-cleavage is 0.11.

Take U32A C45G: the self-cleavage worked out at 0.07.

Regarding G33C C46U, the self-cleavage was 0.05.

As to G33C C46G, the self-cleavage was determined as 0.05.

Take G33C C46A: the self-cleavage worked out at 0.03.

Take U34C U38A: the self-cleavage was found to be 0.11.

Regarding U32C G35U, the self-cleavage worked out at 0.12.

For the variant U32C G35A, the self-cleavage was 0.06.

For the variant U32C G35C, the self-cleavage turned out to be 0.08.

On to U32A U38C, for which the self-cleavage was 0.07.

For the variant U32A U38G, the self-cleavage was 0.02.

For U32A U38A, the self-cleavage is 0.09.

On to G33A G40A, for which the self-cleavage is 0.07.

For the variant G33A G40U, the self-cleavage worked out at 0.09.

In the case of G33A G40C, the self-cleavage stood at 0.09.

For the variant U32A C42U, the self-cleavage was found to be 0.05.

On to U32A C42G, for which the self-cleavage was found to be 0.06.

On to U32A C42A, for which the self-cleavage is 0.05.

Regarding U32G G35A, the self-cleavage was 0.09.

Regarding U32G G35U, the self-cleavage was determined as 0.06.

On to U32G G35C, for which the self-cleavage was determined as 0.1.

For the variant U32C C42A, the self-cleavage was 0.12.

As for U32C C42G, the self-cleavage was determined as 0.1.

In the case of U32C C42U, the self-cleavage was determined as 0.22.

With U34A G44U, the self-cleavage came to 0.11.

For the variant U34A G44C, the self-cleavage is 0.04.

On to U34A G44A, for which the self-cleavage worked out at 0.06.

As for G33C U34G, the self-cleavage worked out at 0.07.

G33C U34C: the self-cleavage was 0.03.

As for G33C U34A, the self-cleavage came to 0.09.

On to U34A C37A, for which the self-cleavage is 0.08.

As to U34A C37G, the self-cleavage was found to be 0.04.

Turning to U34A C37U, the self-cleavage came out at 0.04.

As to U32G U43G, the self-cleavage was 0.04.

In the case of U32G U43A, the self-cleavage is 0.04.

Regarding U32G U43C, the self-cleavage came out at 0.07.

As for G33C A41G, the self-cleavage is 0.04.

Consider G33C A41U, for which the self-cleavage is 0.08.

Turning to G33C A41C, the self-cleavage turned out to be 0.05.

As for G33A U43C, the self-cleavage is 0.05.

G33A U43G: the self-cleavage was 0.13.

In the case of G33A U43A, the self-cleavage amounted to 0.12.

Regarding U32C G40C, the self-cleavage turned out to be 0.03.

U32C G40A: the self-cleavage is 0.06.

Consider U32C G40U, for which the self-cleavage turned out to be 0.07.

Take U32C U38A: the self-cleavage was determined as 0.37.

With U32C U38C, the self-cleavage amounted to 0.06.

As for U32C U38G, the self-cleavage was found to be 0.01.

U34C G35A: the self-cleavage amounted to 0.05.

With U34C G35U, the self-cleavage amounted to 0.18.

In the case of U34C G35C, the self-cleavage turned out to be 0.06.

Consider G33C C45A, for which the self-cleavage came to 0.04.

As for G33C C45G, the self-cleavage is 0.06.

G33C C45U: the self-cleavage came out at 0.05.

In the case of G33C G40C, the self-cleavage amounted to 0.07.

With G33C G40A, the self-cleavage was 0.05.

Regarding G33C G40U, the self-cleavage was 0.06.

Turning to U32C U34A, the self-cleavage was 0.05.

As for U32C U34C, the self-cleavage turned out to be 0.16.

For the variant U32C U34G, the self-cleavage was determined as 0.08.

With U32A C46G, the self-cleavage was found to be 0.28.

Regarding U32A C46A, the self-cleavage is 0.08.

On to U32A C46U, for which the self-cleavage was found to be 0.1.

For G33C U38C, the self-cleavage is 0.04.

For G33C U38G, the self-cleavage amounted to 0.03.

As for G33C U38A, the self-cleavage is 0.04.

In the case of U34A C46U, the self-cleavage came to 0.09.

For U34A C46A, the self-cleavage turned out to be 0.06.

As for U34A C46G, the self-cleavage stood at 0.08.

For G33C C42G, the self-cleavage is 0.05.

Regarding G33C C42U, the self-cleavage is 0.06.

With G33C C42A, the self-cleavage was determined as 0.06.

Regarding C31U U43G, the self-cleavage turned out to be 0.02.

Regarding C31U U43A, the self-cleavage was determined as 0.06.
